According to patent US20220204643A1 (published 2022):

Experiments:
[1] = biological target: T1, teashirt zinc finger homeobox 2, transcript variant 1 (human, UniProt Q9NRE2 1-1034)
T1 construct: HuProt array protein, full-length recombinant from yeast; also called TSHZ2
T1 sequence: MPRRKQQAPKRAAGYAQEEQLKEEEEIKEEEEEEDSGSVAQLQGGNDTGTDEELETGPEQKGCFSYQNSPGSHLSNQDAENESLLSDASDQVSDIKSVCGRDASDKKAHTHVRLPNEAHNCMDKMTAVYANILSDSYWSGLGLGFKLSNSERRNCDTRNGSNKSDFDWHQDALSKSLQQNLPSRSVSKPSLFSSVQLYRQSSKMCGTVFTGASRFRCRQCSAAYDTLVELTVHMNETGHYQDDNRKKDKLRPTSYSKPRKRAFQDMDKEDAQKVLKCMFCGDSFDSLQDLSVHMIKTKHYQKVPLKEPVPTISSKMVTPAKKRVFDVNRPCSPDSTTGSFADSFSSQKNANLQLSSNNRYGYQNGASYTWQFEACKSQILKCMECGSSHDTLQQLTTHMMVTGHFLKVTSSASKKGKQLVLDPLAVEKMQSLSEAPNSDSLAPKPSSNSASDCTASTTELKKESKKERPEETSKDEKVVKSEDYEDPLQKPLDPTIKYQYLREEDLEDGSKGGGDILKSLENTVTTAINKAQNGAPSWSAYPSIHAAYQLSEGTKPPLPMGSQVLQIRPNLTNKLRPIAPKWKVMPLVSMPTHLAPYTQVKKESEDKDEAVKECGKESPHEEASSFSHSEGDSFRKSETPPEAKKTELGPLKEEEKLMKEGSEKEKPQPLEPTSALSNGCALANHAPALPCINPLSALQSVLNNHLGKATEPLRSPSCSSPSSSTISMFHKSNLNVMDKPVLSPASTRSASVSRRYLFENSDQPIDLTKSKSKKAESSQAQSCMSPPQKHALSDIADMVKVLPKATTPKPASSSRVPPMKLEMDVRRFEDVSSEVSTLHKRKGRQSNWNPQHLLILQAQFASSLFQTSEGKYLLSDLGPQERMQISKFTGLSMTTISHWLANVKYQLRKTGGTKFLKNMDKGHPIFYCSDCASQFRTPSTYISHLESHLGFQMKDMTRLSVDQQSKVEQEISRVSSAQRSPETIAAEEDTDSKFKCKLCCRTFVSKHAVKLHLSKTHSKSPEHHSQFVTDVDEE

[2] = biological target: T2, Atpase secretory pathway ca2+ transporting 1 (human, UniProt P98194 1-909)
T2 construct: HuProt array protein, full-length recombinant from yeast; also called ATP2C1
T2 sequence: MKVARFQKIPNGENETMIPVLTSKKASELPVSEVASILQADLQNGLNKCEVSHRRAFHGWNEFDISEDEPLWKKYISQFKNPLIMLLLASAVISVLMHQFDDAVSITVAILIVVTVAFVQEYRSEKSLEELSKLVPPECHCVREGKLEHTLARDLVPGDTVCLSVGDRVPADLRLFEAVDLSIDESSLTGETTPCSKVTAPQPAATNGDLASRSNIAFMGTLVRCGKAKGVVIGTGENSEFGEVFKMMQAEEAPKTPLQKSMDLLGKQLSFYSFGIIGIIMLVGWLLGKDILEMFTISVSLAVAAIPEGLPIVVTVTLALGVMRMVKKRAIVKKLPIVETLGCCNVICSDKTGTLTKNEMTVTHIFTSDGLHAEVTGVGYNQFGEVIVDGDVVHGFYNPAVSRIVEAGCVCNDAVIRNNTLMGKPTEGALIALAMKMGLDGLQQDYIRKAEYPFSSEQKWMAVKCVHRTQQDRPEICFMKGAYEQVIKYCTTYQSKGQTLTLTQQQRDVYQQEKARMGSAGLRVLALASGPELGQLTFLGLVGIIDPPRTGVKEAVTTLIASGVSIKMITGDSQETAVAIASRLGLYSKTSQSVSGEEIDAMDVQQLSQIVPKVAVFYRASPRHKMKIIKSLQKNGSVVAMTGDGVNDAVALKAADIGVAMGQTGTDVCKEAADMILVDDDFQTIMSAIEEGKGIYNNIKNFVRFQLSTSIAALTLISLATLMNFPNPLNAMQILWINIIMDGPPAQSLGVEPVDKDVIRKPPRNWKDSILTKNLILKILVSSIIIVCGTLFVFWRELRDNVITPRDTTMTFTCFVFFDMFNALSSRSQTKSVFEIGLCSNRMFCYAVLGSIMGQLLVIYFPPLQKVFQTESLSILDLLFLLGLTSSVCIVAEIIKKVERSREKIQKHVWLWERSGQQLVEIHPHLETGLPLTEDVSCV

[3] = biological target: T3, coiled-coil domain containing 102A, transcript variant X1 (human, UniProt Q96A19 1-550)
T3 construct: HuProt array protein, full-length recombinant from yeast; also called CCDC102A
T3 sequence (Q96A19 other isoform, or with tags, fused parts or gaps mutant limits assumed): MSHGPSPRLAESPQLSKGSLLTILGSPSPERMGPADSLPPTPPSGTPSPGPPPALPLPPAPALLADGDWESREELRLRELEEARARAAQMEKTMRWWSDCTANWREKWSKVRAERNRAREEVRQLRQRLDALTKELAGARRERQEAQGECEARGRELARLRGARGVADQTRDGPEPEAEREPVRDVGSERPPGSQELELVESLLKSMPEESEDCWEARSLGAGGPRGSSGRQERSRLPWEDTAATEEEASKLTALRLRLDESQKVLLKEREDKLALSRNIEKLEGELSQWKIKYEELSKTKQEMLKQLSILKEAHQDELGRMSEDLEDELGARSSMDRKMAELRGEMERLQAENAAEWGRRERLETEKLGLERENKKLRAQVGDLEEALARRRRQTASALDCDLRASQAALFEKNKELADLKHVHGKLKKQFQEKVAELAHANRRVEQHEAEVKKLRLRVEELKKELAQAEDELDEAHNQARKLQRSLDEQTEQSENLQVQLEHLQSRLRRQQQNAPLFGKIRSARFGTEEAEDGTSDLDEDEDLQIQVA

[4] = biological target: T4, NCCRP1, F-box associated domain containing (human, UniProt Q6ZVX7 1-275)
T4 construct: HuProt array protein, full-length recombinant from yeast
T4 sequence: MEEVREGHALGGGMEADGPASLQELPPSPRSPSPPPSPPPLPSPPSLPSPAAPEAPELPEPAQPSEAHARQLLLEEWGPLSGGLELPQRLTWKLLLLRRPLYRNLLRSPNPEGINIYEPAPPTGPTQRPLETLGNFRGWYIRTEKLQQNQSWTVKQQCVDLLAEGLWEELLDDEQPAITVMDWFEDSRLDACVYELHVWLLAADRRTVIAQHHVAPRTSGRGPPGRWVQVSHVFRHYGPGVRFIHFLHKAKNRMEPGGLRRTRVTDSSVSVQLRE

[5] = biological target: T5, RNA binding motif protein 47, transcript variant X10 (human, UniProt A0AV96 1-593)
T5 construct: HuProt array protein, full-length recombinant from yeast; also called RBM47
T5 sequence: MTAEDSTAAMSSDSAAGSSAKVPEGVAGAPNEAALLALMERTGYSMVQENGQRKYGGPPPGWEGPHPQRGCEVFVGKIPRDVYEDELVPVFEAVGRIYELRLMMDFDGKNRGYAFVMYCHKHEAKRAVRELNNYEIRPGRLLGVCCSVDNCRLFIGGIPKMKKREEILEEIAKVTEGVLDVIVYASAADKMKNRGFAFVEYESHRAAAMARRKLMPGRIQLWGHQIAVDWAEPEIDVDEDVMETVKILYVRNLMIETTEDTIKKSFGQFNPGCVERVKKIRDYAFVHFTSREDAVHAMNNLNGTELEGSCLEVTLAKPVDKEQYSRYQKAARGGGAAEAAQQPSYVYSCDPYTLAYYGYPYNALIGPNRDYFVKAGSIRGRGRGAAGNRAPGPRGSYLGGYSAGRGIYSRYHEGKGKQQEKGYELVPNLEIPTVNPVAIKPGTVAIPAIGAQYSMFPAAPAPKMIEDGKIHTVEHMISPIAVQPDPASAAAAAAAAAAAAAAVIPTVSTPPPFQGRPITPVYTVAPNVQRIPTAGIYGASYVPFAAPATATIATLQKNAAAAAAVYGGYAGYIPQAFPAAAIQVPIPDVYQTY

[6] = biological target: T6, RAD1 checkpoint DNA exonuclease, transcript variant 1 (human, UniProt O60671 1-282)
T6 construct: HuProt array protein, full-length recombinant from yeast
T6 sequence: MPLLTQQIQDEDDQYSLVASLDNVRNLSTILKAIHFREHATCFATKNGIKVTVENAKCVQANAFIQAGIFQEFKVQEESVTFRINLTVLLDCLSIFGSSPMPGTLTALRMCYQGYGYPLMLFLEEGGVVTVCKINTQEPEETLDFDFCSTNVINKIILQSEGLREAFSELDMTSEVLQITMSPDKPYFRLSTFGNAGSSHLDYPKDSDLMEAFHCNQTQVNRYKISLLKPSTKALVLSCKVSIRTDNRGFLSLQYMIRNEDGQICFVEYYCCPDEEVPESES

[7] = biological target: T7, Microtubule associated scaffold protein 1 (human, UniProt Q9ULD2 875-1270)
T7 construct: HuProt array protein, full-length recombinant from yeast; also called MTUS1
T7 sequence: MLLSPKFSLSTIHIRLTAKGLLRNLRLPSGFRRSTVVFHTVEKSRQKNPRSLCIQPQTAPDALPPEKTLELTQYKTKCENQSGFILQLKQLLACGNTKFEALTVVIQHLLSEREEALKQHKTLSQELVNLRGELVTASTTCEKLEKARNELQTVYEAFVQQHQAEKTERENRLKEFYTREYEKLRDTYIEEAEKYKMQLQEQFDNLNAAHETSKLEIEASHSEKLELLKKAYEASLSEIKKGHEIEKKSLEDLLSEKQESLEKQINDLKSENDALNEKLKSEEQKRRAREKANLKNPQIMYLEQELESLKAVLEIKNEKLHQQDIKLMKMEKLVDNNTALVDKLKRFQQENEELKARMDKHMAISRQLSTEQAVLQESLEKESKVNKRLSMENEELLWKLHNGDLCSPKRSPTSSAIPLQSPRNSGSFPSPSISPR

B1: TESO1006 (antibody, V domains shown)
VH: QLHLQESGPGLVKPSETLSLTCTVSGGSVSSSSYYWGWVRQPPGKGLEWIGHVYYSGRTYYNPSLKSRATISLDTSKNQFSLKLSSLTATDTAVYYCATIVAAYSYGFEFDPWGQGILVIVSS
VL: QSVLTQPPSVSAAPGQKVTISCSGGSSNIGNNYVSWYQQLPGTAPKLIIYDNDKRPAGIPDRFSGSKSGSSATLGITGLQNGDEAEYYCGTWDSSLGGGVFGGGTKVTVLG
notes: detected with anti-human IgG Fc
Q: What does the source list for B1?
A: binding result [1]: binds; binding result [2]: binds

B2: THNS1003 (antibody, V domains shown)
VH: VVQLVESGGGLVQPGGSLRLSCAASGFTFNNYEMNWVRQAPGKGLEWVSYISSSGSTIYYADSVKGRFTISRDNAKNSLYLQMNSLRAEDTAVYYCARQMVTTRGYWGQGTLVTVSS
VL: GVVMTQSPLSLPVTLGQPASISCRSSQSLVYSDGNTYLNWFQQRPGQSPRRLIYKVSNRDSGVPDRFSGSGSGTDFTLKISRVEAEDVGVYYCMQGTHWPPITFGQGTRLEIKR
notes: as for B1
Q: What does the source list for B2?
A: binding result [3]: binds; binding result [4]: binds

B3: THNS1004 (antibody, V domains shown)
VH: EVQLVESGGGLVQPGGSLRLSCAASGFTFSSNWMSWVRQAPGKGLEWVANIKEDGSEKYYVDSVKGRFTIFRDNAKNSLYLQMNSLRAEDTAVYYCARVPSRYGRSRGAFDIWGQGTMVTVSS
VL: DIQMTQSPSSLSASVGDRVTITCRASQSISSYLNWYQQKPGKAPKLLIYAASSLQSGVPSRFSGSGSGTDFTLAISSLQPEDFATYYCHQTYSTRLTFGGGTEVEIKR
notes: as for B1
Q: Does B3 bind [5]?
A: Result: binds

B4: THNS1006 (antibody, V domains shown)
VH: QVQLVESGGGVVQPGRSLRLSCAASGFTFSSYGMHWVRQAPGKGLEWVAIISYDGSNKYYADSVKGRFTISRDKSKNTLYLQMNSLRAEDTAVYYCAKSKGNYRDAMDVWGQGTTVTVSS
VL: SYVLTQPPSVSVAPGQTARITCGGNNIGSKSVHWYQQKPGQAPVLVVYDDSDRPSGIPERFSGSNSGNTATLTISRVEAGDEADYYCQVWDSSSDPWVFGGGTKLTVLG
notes: as for B1
Q: Does B4 bind [6]?
A: Result: binds

Q: Does B4 bind [7]?
A: Result: binds
